Where two headings read alike, the source gives them in different places.
What was measured:
[1] = molecular target: human neonatal Fc receptor (human) (UniProt P55899); assay: SPR
adalimumab (human) [2] = assay: BLI
adalimumab (human) [3] = assay: BLI; remark: listed apart in the source

Chain of UniProt P55899 (P55899 24-297): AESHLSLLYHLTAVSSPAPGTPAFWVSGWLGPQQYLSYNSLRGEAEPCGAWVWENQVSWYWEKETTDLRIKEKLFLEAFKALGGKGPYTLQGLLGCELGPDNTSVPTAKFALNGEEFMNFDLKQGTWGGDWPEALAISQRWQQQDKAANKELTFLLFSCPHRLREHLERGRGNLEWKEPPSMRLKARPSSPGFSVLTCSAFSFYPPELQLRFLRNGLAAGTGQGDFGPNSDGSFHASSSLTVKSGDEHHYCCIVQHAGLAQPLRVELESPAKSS

Substance	KD1 [1]	KD2 [1]	ka1 [1]	ka2 [1]	kd1 [1]	kd2 [1]	Kd (adalimumab (human) [2])	koff (adalimumab (human) [2])	kon (adalimumab (human) [2])	koff (adalimumab (human) [3])
adalimumab (antibody)	8.77 nM	467 nM	906000 M⁻¹ s⁻¹	362000 M⁻¹ s⁻¹	0.0073 s⁻¹	0.141 s⁻¹				
recombinant human tumor necrosis factor (from UniProt P01375 77-233) (ligand)							4.6 pM	5.5e-06 s⁻¹	1.32e+06 M⁻¹ s⁻¹	4.81e-05 s⁻¹
